Assay results: the supplement of paper PMC12783771
± gives the standard deviation of the averaged measurements.

B1: library; a variant is named by its letters at X, in order (parent)
chain: MNIQIGELAKRTACPVVTIRFYEQEGLLPPPGRSRGNFRLYGEEHVERLQFIRHCRSLDMPLSDVRTLLSYRKRPDQDCGEVXMLLDEHIRQVESRIGALLELKHHLVELREACSGARPAQSCGILQXLSXCVCXTRGTTAHXSD

How the values were obtained:
[1] = variants of: B1; assay: sfGFP reporter fluorescence (15 h) (µM FITC); higher = higher leak; conditions: library round: Round 2; ligand: none
Description: (§1)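 Cell-free biosensing: 1 µL Echo-assembled CFE reactions with linear PbrR variant templates (5 nM) and pPbrR-sfGFP reporter, with 1 µM Pb, 30 µM Zn or no ligand; endpoint sfGFP fluorescence after 15 h at 30 °C calibrated as µM FITC. Round 2 ML-predicted PbrR mutants; up to 3 biological replicates.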

[2] = variants of: B1; assay: sfGFP reporter fluorescence (15 h) (µM FITC); higher = stronger transcriptional activation; conditions: library round: Round 2
Description: as §1

| Variant | sfGFP reporter fluorescence [1] | sfGFP reporter fluorescence ([2]; ligand: 1 µM Pb) | sfGFP reporter fluorescence ([2]; ligand: 30 µM Zn) |
| --- | --- | --- | --- |
| NADPP V108L L129M | 0.0617 ± 0.0065 | 0.0681 ± 0.0059 | 0.734 ± 0.067 |
| TGDDY V82I L129I | 0.0454 ± 0.0012 | 0.0463 ± 0.00051 | 0.0601 ± 0.013 |
| SGDDP I90L D145A | 0.0442 ± 0.0022 | 0.046 ± 0.001 | 0.122 ± 0.0052 |
| TGDDT R111V | 0.048 ± 0.00067 | 0.0656 ± 0.0064 | 0.282 ± 0.033 |
| NGADP M60L P61N D64K | 0.804 ± 0.17 | 1.38 ± 0.2 | 2.82 ± 0.43 |
| TGDDP D64E V108N | 0.0416 ± 0.00051 | 0.0357 ± 0.0033 | 0.0616 ± 0.0048 |
| NGCDR K104R | 0.047 ± 0.0037 | 0.0672 ± 0.0019 | 0.0986 ± 0.0051 |
| NSAAP | 0.0758 ± 0.0055 | 0.162 ± 0.0077 | 1.67 ± 0.15 |
| NGTDP S115G V133P | 0.0474 ± 0.0012 | 0.0633 ± 0.00085 | 0.461 ± 0.052 |
| NMDDP M60L D64T L107C | 3.16 ± 0.21 | 2.93 ± 0.29 | 4.14 ± 0.31 |
| NIDDP H105E L107C C134E | 2.32 ± 0.044 | 2.05 ± 0.18 | 2.82 ± 0.14 |
| NGDDP P61N L107C E109H | 0.627 ± 0.1 | 1.51 ± 0.22 | 2.62 ± 0.31 |
| NGDDP M60L D64S L107C | 3.21 ± 0.37 | 2.96 ± 0.13 | 3.58 ± 0.77 |
| NGSPL | 0.077 ± 0.0065 | 0.141 ± 0.014 | 1.2 ± 0.12 |
| TGCAP | 0.0461 ± 0.0022 | 0.0657 ± 0.0026 | 0.0869 ± 0.005 |
| SGDDW V108L | 0.0515 ± 0.0023 | 0.0672 ± 0.0033 | 0.247 ± 0.031 |
| SGDAY | 0.0491 ± 0.0015 | 0.0749 ± 0.0032 | 0.399 ± 0.039 |
| TGHAP | 0.0614 ± 0.0048 | 0.0828 ± 0.0035 | 0.394 ± 0.061 |
| TGDDP D64T R111L | 0.0779 ± 0.0063 | 0.151 ± 0.011 | 1.9 ± 0.12 |
| NIDDP I90L C134E | 0.0691 ± 0.0074 | 0.0913 ± 0.0088 | 1.77 ± 0.32 |
| NIDDP K104T L107E | 0.047 ± 0.0022 | 0.0442 ± 0.00085 | 0.0493 ± 0.0021 |
| TGSDP H142A | 0.0642 ± 0.0043 | 0.081 ± 0.0053 | 0.451 ± 0.086 |
